In patent US20120034651:

How the values were obtained:
D16G TCL1 = D16G TCL1 (UniProt P56279)
[1] = tested on: T1, 10/24 peptide (amino acid residue 10-24 of human TCL1, NH2-AVTDHPDRLWAWEKF-COOH)
T1 sequence: AVTDHPDRLWAWEKF

[2] = tested on: T2, peptide having repetitive sequence of 11-23 from 10-24 (NH2-VTDHPDRLWAWEK-RRR-VTDHPDRLWAWEK-COOH)
T2 sequence: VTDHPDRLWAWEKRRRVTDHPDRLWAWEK

Sequence of D16G TCL1 (P56279 whole entry D16G): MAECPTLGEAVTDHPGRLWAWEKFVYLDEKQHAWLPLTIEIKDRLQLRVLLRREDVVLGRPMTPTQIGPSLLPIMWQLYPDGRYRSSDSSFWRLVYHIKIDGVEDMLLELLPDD

Substance | Akt kinase activity in an in vitro kinase assay (GSK-3a phosphorylation, Akt Ser-473 phosphorylation) (D16G TCL1) | In vitro Akt kinase assay, GSK phosphorylation by western blotting, peptide at 200 µM [1] | In vitro Akt kinase assay, GSK phosphorylation [2]
Akt (in vitro kinase assay of Example 1) | D16G TCL1 did not affect the Akt kinase activity even though in a dose escalation experiment |  | 
Recombinant Akt protein extracted from mammalian cells |  | the 10/24 peptide was effectively inhibited the phosphorylation potency for GSK peptide of Akt | The similar inhibition effect on Akt kinase activity was also identified
